This note sets out measurements from US20240199761A1 (AstraZeneca / MedImmune, published 2024).

Residue numbers refer to the chain shown, from its start. Read-outs that look alike come from different tables or passages of the source.

The target of one experiment is recombinant human PAD2 (human, UniProt Q9Y2J8 1-665). Nature of the experiment: cell-based or functional assay.
The next experiment addresses T1, huFcRn (human, UniProt P55899 24-297; P61769 21-119, limits assumed).
T1 construct: also called human neonatal Fc receptor
As to the kind of experiment: huFcRn affinity chromatography, pH gradient elution.

Experiment [1] deals with T2, cynomolgus PAD2 haplotype N55D, N82S (37.5%) (cynomolgus, UniProt G7NUR0 1-665).
T2 chain: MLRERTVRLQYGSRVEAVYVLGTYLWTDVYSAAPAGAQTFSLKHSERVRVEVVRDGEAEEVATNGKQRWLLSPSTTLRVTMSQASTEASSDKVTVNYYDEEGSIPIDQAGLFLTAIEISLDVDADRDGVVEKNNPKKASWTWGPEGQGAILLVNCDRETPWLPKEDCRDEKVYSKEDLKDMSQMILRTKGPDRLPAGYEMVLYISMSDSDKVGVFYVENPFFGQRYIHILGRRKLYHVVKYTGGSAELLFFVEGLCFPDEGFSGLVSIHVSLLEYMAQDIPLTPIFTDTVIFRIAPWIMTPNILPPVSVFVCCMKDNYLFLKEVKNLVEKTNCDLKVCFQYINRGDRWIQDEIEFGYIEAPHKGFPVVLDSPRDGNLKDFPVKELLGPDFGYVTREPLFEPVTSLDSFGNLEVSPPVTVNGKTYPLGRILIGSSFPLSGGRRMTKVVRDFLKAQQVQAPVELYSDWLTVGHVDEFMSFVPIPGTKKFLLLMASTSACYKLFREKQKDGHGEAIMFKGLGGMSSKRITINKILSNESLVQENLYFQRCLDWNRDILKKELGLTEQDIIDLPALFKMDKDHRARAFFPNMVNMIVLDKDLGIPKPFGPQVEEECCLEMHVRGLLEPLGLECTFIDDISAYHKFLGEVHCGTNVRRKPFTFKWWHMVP
Nature of the experiment: SPR; antibody captured on C1-Protein G', PAD2 flowed over.

Experiment [2] deals with T3, cynomolgus PAD2 haplotype N55D, T63A, N82S (9.4%) (cynomolgus, UniProt G7NUR0 1-665).
T3 chain: T2 chain with T63A
The experiment is described as above.

The target of the next experiment is T4, recombinant mouse PAD2 (mouse, UniProt Q08642 1-673).
T4 construct: Recombinant and tagged
Nature of the experiment: ratio of SPR KDs, mouse PAD2 against human PAD2; antibody captured on C1-Protein G', PAD flowed over.

For experiment [3], the target named is T5, human PAD2, recombinant, tags at the N-terminus (human, UniProt Q9Y2J8 1-665, enzymatically biotinylated on an Avi-tag where captured on streptavidin).
T5 construct: not shown: N-terminal tags incl; Avi-tag
Nature of the experiment: SPR; antibody on C1-Protein G', PAD2 flowed over.

Experiment [4] has as its target T6, cynomolgus PAD2, recombinant, tags at the N-terminus (cynomolgus, UniProt G7NUR0 1-665, enzymatically biotinylated on an Avi-tag where captured on streptavidin).
T6 construct: also called Cyno PAD2; not shown: N-terminal tags incl; Avi-tag
As to the kind of experiment: SPR; antibody on C1-Protein G', PAD2 flowed over.

Experiment [5] has as its target T7, mouse PAD2, recombinant, tags at the N-terminus (mouse, UniProt Q08642 1-673, enzymatically biotinylated on an Avi-tag where captured on streptavidin).
T7 construct: not shown: N-terminal tags incl; Avi-tag
Nature of the experiment: SPR; antibody on C1-Protein G', PAD2 flowed over.

Experiment [6] addresses T5, human PAD2, recombinant, tags at the …. Nature of the experiment: SPR; antibody on C1-Protein G', PAD2 flowed over. This is another data set of the same source.
Experiment [7] addresses T6, cynomolgus PAD2, recombinant, tags at …. As to the kind of experiment: SPR; antibody on C1-Protein G', PAD2 flowed over. This is another data set of the same source.
Experiment [8] concerns the target T7, mouse PAD2, recombinant, tags at the …. Nature of the experiment: SPR; antibody on C1-Protein G', PAD2 flowed over. The source holds these as a separate data set.
Experiment [9] addresses T5, human PAD2, recombinant, tags at the …. As to the kind of experiment: SPR; biotinylated antibody on C1-streptavidin, PAD2 flowed over.
Experiment [10] addresses T6, cynomolgus PAD2, recombinant, tags at …. The experiment is described as above.
The target in experiment [11] is T5, human PAD2, recombinant, tags at the …. The experiment is described as above. The source holds these as a separate data set.
Experiment [12] concerns the target T6, cynomolgus PAD2, recombinant, tags at …. The experiment is described as above. This is another data set of the same source.
Another experiment addresses T8, Human PAD1 (Homo sapiens, UniProt Q9ULC6).
T8 construct: biotinylated, captured on a streptavidin plate; also called biotinylated PAD1
T8 sequence (single chain, looked up): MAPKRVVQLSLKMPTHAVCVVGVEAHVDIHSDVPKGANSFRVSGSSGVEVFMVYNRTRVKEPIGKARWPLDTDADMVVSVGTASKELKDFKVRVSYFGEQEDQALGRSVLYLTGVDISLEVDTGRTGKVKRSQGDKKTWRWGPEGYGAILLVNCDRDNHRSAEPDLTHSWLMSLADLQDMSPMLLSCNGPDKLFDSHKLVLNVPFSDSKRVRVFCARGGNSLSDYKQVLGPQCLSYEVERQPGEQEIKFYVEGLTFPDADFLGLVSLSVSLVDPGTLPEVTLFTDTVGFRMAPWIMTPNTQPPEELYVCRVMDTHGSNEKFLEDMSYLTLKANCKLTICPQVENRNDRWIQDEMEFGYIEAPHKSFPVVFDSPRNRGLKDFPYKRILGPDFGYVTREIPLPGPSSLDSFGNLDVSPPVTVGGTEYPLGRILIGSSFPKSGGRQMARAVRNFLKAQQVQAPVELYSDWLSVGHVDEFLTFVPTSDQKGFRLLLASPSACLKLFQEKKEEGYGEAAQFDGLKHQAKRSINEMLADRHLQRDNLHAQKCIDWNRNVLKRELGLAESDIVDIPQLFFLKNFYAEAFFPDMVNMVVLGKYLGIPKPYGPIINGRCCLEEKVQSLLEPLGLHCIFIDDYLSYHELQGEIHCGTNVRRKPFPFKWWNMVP
As to the kind of experiment: specificity ELISA: biotinylated PAD on a streptavidin plate, detection with anti-human IgG Fc HRP, Binding (RFU); antibody concentration not given.

The target of another experiment is T9, Human PAD3 (Homo sapiens, UniProt Q9ULW8).
T9 construct: biotinylated, captured on a streptavidin plate; also called biotinylated PAD3
T9 sequence (single chain, looked up): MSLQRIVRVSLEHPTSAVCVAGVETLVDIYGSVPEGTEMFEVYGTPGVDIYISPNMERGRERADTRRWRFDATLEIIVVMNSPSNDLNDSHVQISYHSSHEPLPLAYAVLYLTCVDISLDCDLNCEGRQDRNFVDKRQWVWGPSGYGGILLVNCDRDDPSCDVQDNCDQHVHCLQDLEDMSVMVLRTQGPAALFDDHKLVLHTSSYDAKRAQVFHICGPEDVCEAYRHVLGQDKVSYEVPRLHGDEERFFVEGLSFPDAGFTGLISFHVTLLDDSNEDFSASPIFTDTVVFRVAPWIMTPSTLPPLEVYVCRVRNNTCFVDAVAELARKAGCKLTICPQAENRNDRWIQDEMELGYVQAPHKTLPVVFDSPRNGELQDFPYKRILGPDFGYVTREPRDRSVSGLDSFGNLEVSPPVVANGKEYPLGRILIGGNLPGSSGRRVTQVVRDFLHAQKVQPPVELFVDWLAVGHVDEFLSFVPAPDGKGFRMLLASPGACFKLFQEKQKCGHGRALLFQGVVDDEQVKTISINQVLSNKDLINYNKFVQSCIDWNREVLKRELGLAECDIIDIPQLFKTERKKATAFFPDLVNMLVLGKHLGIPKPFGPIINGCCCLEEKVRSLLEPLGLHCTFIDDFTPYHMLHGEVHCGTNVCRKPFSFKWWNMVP
Described as above.

B1: Clone 08 (Bis3, TM; Fab anti-PAD2, scFv anti-PAD4) (bispecific antibody, human IgG1, lambda)
heavy: not shown
light: SYVLTQPPSVSVSPGQTASITCSGDKVGDKYVSWYQQKPGQSPVLVIYQDSQRPSGIPERFSGSNSGNTATLTISGTQAMDEADYYCQTWAPDVLLFGSGTKVTVLGQPKAAPSVTLFPPSSEELQANKATLVCLISDFYPGAVTVAWKADSSPVKAGVETTTPSKQSNNKYAASSYLSLTPEQWKSHRSYSCQVTHEGSTVEKTVAPTECS
notes: Bivalent bispecific IgG-HC-scFv; also called Clone 8*; Clone 8^#
With B1, the “Potency (IC50), Histone-H3 assay” value with recombinant human PAD2 is 94 pM. In the experiment with huFcRn, the “HPLC retention” value amounted to 17 min and the Relative retention was -0.207. Besides, in [1], the dissociation constant (Kd) came out at 6.4 pM, the koff is 2.65e-05 s⁻¹ and the kon is 4.23e+06 M⁻¹ s⁻¹. In experiment [2], this molecule gave a Kd of 43.4 pM, a koff of 6.76e-05 s⁻¹ and an on-rate constant (kon) of 1.58e+06 M⁻¹ s⁻¹. The “fold difference in KD, mouse/human” value with recombinant mouse PAD2 was found to be 1.1 fold.

B2: Clone 08, Bis3 anti-PAD2 Fab / anti-PAD4 scFv, Fc TM (bispecific antibody, human IgG1, lambda)
heavy: not shown
light: B1 light
notes: Bivalent for PAD2 and for PAD4; In the rows marked ^# the antibody was chemically biotinylated; also called Clone 8*; Clone 8^#
As to B2, the Kd in experiment [3] worked out at 6.65 pM; in experiment [4], 16.7 pM; in experiment [5], 7.19 pM; in [6], 6.65 pM; in experiment [7], 16.7 pM; in [8], 7.19 pM. The Kd in experiment [9] turned out to be 7.51 pM; in experiment [10], 12.1 pM; in [11], 7.51 pM; in experiment [12], 12.1 pM. The koff in experiment [3] worked out at 2.97e-05 s⁻¹; in [4] it was 4.52e-05 s⁻¹; in [5] it was 3.31e-05 s⁻¹; in experiment [9], 4.74e-05 s⁻¹; in experiment [10] it was 0.0001 s⁻¹. In addition, the kon in experiment [3] came to 4.48e+06 M⁻¹ s⁻¹; in experiment [4] it was 2.74e+06 M⁻¹ s⁻¹; in [5], 4.65e+06 M⁻¹ s⁻¹; in experiment [9], 5.88e+06 M⁻¹ s⁻¹; in [10], 9.48e+06 M⁻¹ s⁻¹.

B3: Clone 12 (Bis3, FQQ-YTE; PAD2 Fab, PAD4 scFv) (bispecific antibody, human IgG1, lambda)
heavy: not shown
light: B1 light
notes: also called PAD240012
For B3, the binding result in the experiment with Human PAD1 and with Human PAD3 was “no binding” throughout.
